The results in this text go back to patent publication US20150322167A1 (UNIVERSITY OF MASSACHUSETTS, published 2015).

Where a chain is given by its changes, count along the chain named.

The target of assay [1] is T1, hSOD1 purified from human erythrocytes (human, UniProt P00441 2-154).
T1 construct: Bought from Sigma; also called E-hSOD1
The assay can be described thus: Octet QK, hSOD1 coupled to biosensor, antibody in solution. (In general: BLI is a label-free optical method that tracks binding on a fibre tip over time.)
Description: Affinity of antibodies was determined using an Octet QK (ForteBio) biomolecular interaction instrument. […] The Octet QK uses biosensors to assess mass increases/decreases and determine rates of association and disassociation. A biosensor coated with amine-reactive chemistry was introduced into a solution containing E-hSOD1 or b-hSOD1 to covalently link these proteins to the surface of the biosensor. Unbound hSOD1 was washed away and the coated biosensor was introduced into a solution containing anti-SOD1 monoclonal antibodies at which time Kₒₙ was determined. The sensor was then introduced into a buffer solution containing no antibody and the Koff determined Using Kₒₙ and Koff an affinity (KD) was calculated.
Affinity analysis was performed on all 13 lead-candidate anti-hSOD1 human monoclonal antibodies.

Assay [2] addresses T2, bacterially-expressed hSOD1 (human, UniProt P00441 2-154).
T2 construct: Not fully metallated, expected to be partly misfolded; also called b-hSOD1; GST-b-hSOD1; not shown: N-terminal glutathione sulfotransferase (GST) domain from vector pGEX-4T-3
Described as above.

Assay [3] has as its target T3, b-hSOD1-OX (oxidized with 10 mM hydrogen peroxide for 24 hours; residues not given ; Oxidised with 10 mM hydrogen peroxide for 24 hours. The oxidised residues are not stated, so the letters are left …).
T3 construct: also called oxidized bacterially-expressed hSOD1 (GST fusion); not shown: N-terminal GST domain of pGEX-4T-3 and the vector-derived linker
The experiment in a line: ELISA on coated protein, antibody titrated, OD 405nm.

Assay [4] concerns the target T4, b-hSOD1-D (amino acids 39 to 153) (human, UniProt P00441 40-154).
T4 construct: also called D truncation; not shown: N-terminal thioredoxin (trx) domain from vector pET32-a-myc; C-terminal myc and 6 histidine tags
The assay can be described thus: ELISA, captured b-hSOD1 truncations. For orientation: An ELISA detects its analyte on a solid surface through an enzyme-linked reagent.

In assay [5] the target is T5, b-hSOD1-I (amino acids 39 to 116) (human, UniProt P00441 39-117).
T5 construct: also called I truncation; not shown: N-terminal thioredoxin (trx) domain from vector pET32-a-myc; C-terminal myc and 6 histidine tags
T5 sequence (P00441 39-117): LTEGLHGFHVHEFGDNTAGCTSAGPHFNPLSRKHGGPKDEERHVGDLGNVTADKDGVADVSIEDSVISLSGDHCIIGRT
The experiment in a line: ELISA, captured b-hSOD1 truncations.

Assay [6] addresses T6, b-hSOD1-B (amino acids 1 to 77) (human, UniProt P00441 2-78).
T6 construct: also called B truncation; not shown: N-terminal thioredoxin (trx) domain from vector pET32-a-myc; C-terminal myc and 6 histidine tags
The assay can be described thus: ELISA, captured b-hSOD1 truncations.

In assay [7] the target is T7, b-hSOD1-C (amino acids 1 to 116) (human, UniProt P00441 2-117).
T7 construct: also called C truncation; not shown: N-terminal thioredoxin (trx) domain from vector pET32-a-myc; C-terminal myc and 6 histidine tags
T7 sequence (P00441 2-117): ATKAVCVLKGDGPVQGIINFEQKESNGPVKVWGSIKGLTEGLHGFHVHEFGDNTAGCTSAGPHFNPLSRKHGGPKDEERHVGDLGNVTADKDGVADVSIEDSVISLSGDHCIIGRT
The experiment in a line: ELISA, captured b-hSOD1 truncations.

For assay [8], the target named is mouse SOD1 expressed in mouse neuroblastoma cells (MNA) (mouse, UniProt P08228 2-154). The assay can be described thus: IP from mouse neuroblastoma (MNA) cell lysate, immunoblot rabbit anti-SOD1.
Description: Expression of SOD1 in mouse neuroblastoma cells (MNA) was assessed by SDS-PAGE followed by immunoblot with rabbit anti-SOD1 (lysate). The position of migration of SOD1 as well as position of a non-specific high molecular weight (HMW) band is indicated to the right of the immunoblots. MNA lysates were precipitated with 11 human anti-hSOD1 antibodies as well as a control, isotype matched irrelevant antibody (Neg control) which are listed above the immunoblots.

T6 sequence (P00441 2-78): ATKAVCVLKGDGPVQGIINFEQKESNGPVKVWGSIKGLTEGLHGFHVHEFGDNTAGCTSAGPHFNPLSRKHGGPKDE
T4 sequence (P00441 40-154): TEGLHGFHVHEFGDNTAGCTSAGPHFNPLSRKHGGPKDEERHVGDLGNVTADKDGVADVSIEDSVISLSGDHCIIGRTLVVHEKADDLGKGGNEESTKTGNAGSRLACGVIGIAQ
T2 sequence (P00441 2-154): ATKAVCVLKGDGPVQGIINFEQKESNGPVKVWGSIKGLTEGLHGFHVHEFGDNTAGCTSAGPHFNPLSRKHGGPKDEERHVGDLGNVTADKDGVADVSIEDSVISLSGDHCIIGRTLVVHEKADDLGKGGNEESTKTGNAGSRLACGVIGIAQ
T1 sequence (P00441 2-154): as above
T3 sequence (chain, as listed by the source limits assumed): as the sequence (P00441 2-154) above

B1: 303-8 (antibody, V domains shown)
VH: QVQLVQSGAEVKKPGSSVKVSCKASGGSFSIYVISWVRQAPGQGLEWMGRIIPILGTTNYAQKFQGRVTITADKSTSTAYMELSSLRSEDTAVYYCARPDSPNHSNTFDYWGQGTLVTVSS
VL: DIQMTQSPSSLSASVGDRVTITCRASQGISSWLAWYQQKPEKAPKSLIYGASSLQSGVPSRFSGSGSGTDFTLTISSLQPEDFATYYCQQYNSYPYTFGQGTKLEIK
notes: Human IgG kappa monoclonal from HuMab mouse hybridoma; Conformation-dependent antibody
B1: the results for the equilibrium dissociation constant (Kd) in assay [1] and in assay [2] were 8.8 nM and 1.2 nM, respectively. Besides, the binding result in assay [3] is “binds”; in assay [4] it was “no binding”; in assay [5], “no binding”; in assay [6] it was “no binding”; in assay [7], “no binding”.

B2: 114-41 (antibody, V domains shown)
VH: QVQLVQSGAEVKTPGASVKVSCKASGYTFTSFGISWVRQAPGQGLEWMGWISVYNDYTNYAQKFQGRVTMTTDTSTSTAYMELRSLRSDDTAMYYCARKRGGDMDYWGQGTLVTVSS
VL: B1 VL with L11V, G28D, Q38H, E41G, S46L, G50L, Y91A, Y94F, Y96W, L104V
notes: as for B1
Regarding B2, the binding result in assay [8] is listed as “no binding”.

B3: 591-37 (antibody, V domains shown)
VH: EVQLVQSGGGLVHPGGSLRLSCAGSGFTFSRYALHWVRQAPGKGLEWVSAIGIGGGTFYADSVKGRFTISRDNAKNSLYLQMNSLRAEDMAVYYCARDTYYDFFDAFDIWGQGTMVTVSS
VL: B1 VL with G50A, N92D, Y96L, Q100G, L104V
notes: Human IgG kappa monoclonal from HuMab mouse hybridoma
Regarding B3, the binding result in assay [8] is reported as “no binding”.

B4: 358-11 (antibody, V domains shown)
VH: QVQLVESGGGVVQPGRSLRLSCAASGFTFSNYGIHWVRQAPGKGLEWVAIIWHDGSNSYYVDSVKGRFTMSRDNSKNTVYLQMNSLRAEDTAVYFCARIIGGAFDIWGQGTMVTVSS
VL: B1 VL with G50A, Y96I, K103R
notes: as for B3
Take B4: the binding result in assay [8] is given as “no binding”.

B5: 591-33 (antibody, V domains shown)
VH: EVQLVESGGGLVQPGGSLRLSCAASGFTFSRYWMSWVRQAPGKGLEWMANIKQDGSETHYVDSVKGRFTISRDNAKNSLYLQMNSLRAEDTAVYYCAIGDYWGQGTLVTVSS
VL: B1 VL with G28D, G50A, N92K, Y96L, Q100G, L104V
notes: as for B3
In the case of B5, the binding result in assay [8] is “no binding”.

B6: 311-3 (antibody, V domains shown)
VH: QVQLQQWGAGLLKPSETLSLTCAVYGGSFSGYYWNWIRQPPGMGLEWIGEIHQSGGPHYNPSLKSRVSISVDTSKNQVNLKLSSVTAADTAIYYCTELDDYWGQGTLVTVSS
VL: EIVLTQSPATLSLSPGERATLSCRASQSVSSYLAWYQQKPGQAPRLLIYNASNRATGIPARFSGSGSGTDFTLTIGSLEPEDFAVYYCQQRSNWPRTFGQGTKVEIK
notes: as for B3
As to B6, the binding result in assay [8] is reported as “no binding”.

B7: 358-22 (antibody, V domains shown)
VH: QVQLVESGGGVVQPGRSLRLSCAASGFTFRSYGMHWVRQAPGKGLEWVTLIWYDGSNKYYADSVKGRFTISRDNSKNTLYLQMNSLRVEDTAVYYCAREGFNWDAFDIWGQGTMVTVSS
VL: EIVLTQSPGTLSLSPGERATLSCRASQSVRISYLAWYQQKPGQAPRLLIYGTFSRATGIPDRFSGSGSGTDFTLTISRLEPEDFAVYYCQQYGSSMYTFGQGTKLEIK
notes: as for B1
As for B7, the binding result in assay [8] is recorded as “binds”.

B8: 306-155 (antibody, V domains shown)
VH: EVQLVQSGAEVKKPGESLKISCKGSGYSFTSYWIGWVRQMPGKGLEWMGIIYPGDSDTRYSPSFQGQVTISADKSISTAYLQWSSLKASDTAMYYCARQGSGWYGNYFDYWGQGTLVTVSS
VL: B7 VL with V29F, R30S, I31R, S32G, T52A, F53S, A56V, G93D, M96P
notes: as for B1
B8: the binding result in assay [8] is listed as “no binding”.

B9: 14-173 (antibody, V domains shown)
VH: EVQLVESGGGLVQPGGSLRLSCAASGFTFSSFWMSWVRQAPGKGLEWVANIKHDGSEQDYVDSVKGRFTISRDNAKNSLYLQMNSLRAEDTAVYYCARGGIWFGPWGQGTLVTVSS
VL: VIWMTQSPSLLSASTGDRVTISCRMSQGISSYLAWYQQKPGKAPEVLIYAVSTLQSGVPSRFSGSGSGTDFTLTISCLQSEDFATYYCQQYYSFPYTFGQGTKLEIK
notes: as for B1
For B9, the Kd (commonly the concentration at which binding is half-saturated) in assay [1] is 3.5 nM; in assay [2] it was 19 nM. The binding result in assay [4] was “no binding”; in assay [5], “no binding”; in assay [6], “no binding”; in assay [7], “no binding”; in assay [8], “binds”.

B10: 312-19 (antibody, V domains shown)
VH: QVQLVQSGAEVKKPGSSVKVSCKASGGTFNNFVIGWVRQAPGQGLEWMGRIIPILDIANYAQKFQGRVTITADKSTSTVYMELNSLRSEDTAVYYCARTGNYYKPYDYWGQGTLVTVSS
VL: EIVLTQSPDFQSVTPKEKVTITCRASQSIGSSLHWYQQKPDQSPKLLIKYASQSFSGVPSRFSGSGSGTDFTLTINSLEAEDAAAYYCHQSSSLPITFGQGTRLEIK
notes: as for B1
Take B10: the binding result in assay [8] is given as “no binding”.

B11: 597-120 (antibody, V domains shown)
VH: EVHLVESGGGLVQSGGSLRLSCAASGFSISGYWMSWVRQAPGKGLEWVANIKQDGGEKYYGDSVKGRFTISRDNAENSLYLQMSSLRAEDTAVYYCVMAGGLDYWGQGALVTVSS
VL: EIVLTQSPATLSLSPGERATLSCRASQSVSSYLAWYQQKPGQAPRLLIYDASNRATGIPARFSGSGSGTDFTLTISSLEPEDFAVYYCQQRSNWYTFGQGTKLEIK
notes: as for B1
B11: the binding result in assay [8] is on record as “no binding”.
